The data set deals with ATP. Put plainly: switch fluorescence ratio, 500 uM ATP over buffer (Cy3 cluster intensity, sum of 5 cycles each) (fold (ratio)); higher = stronger signal-on switching upon ATP binding; sequences stand for … in TCGTCGGCAGCGTCAGATGTGTATAAGAGACAGTTTTTTTTTTTTTTTTTTTTTTTTT…TC. The settings on record: aptamer strand: ATP DNA aptamer (quencher-CACCTGGGGGAGTATTGCGGAGGAAGG + anchor), 100 nM annealed; ATP concentration: 500 uM. Summed up: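 Cy3-labelled switching-strand clusters on a modified Illumina MiSeq flow-cell were annealed to 100 nM quencher-labelled ATP aptamer and imaged first in selection buffer, then after 15 min with 500 uM ATP at 22 °C. NaOH stripping and re-annealing separated each of five buffer/ATP cycles, and clusters outside 100-1000 RFU were excluded. The fluorescence ratio sums target-cycle Cy3 intensity over buffer-cycle Cy3 intensity per cluster and averages it per switch-domain sequence.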

Consider 45 sequences from the supplement of paper PMC10126150.

± gives the standard deviation of the averaged measurements.
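Also: ATP exposure 15 min at 22 °C before imaging.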

In the case of TTTTTCGTAA, the switch fluorescence ratio came to 1.04 ± 0.061.

For TTTTTCGTGA, the switch fluorescence ratio came to 1.13 ± 0.15.

TTTTTCTAAG: the switch fluorescence ratio amounted to 1.014 ± 0.007.

As to TTTTTCTAAT, the switch fluorescence ratio stood at 1.03 ± 0.071.

In the case of TTTTTCTGGT, the switch fluorescence ratio is 1.01 ± 0.075.

Turning to TTTTTGACGG, the switch fluorescence ratio was found to be 1 ± 0.033.

Regarding TTTTTGATAA, the switch fluorescence ratio is 0.9683 ± 0.0063.

As for TTTTTGCAAT, the switch fluorescence ratio was 1.43 ± 0.24.

For the sequence TTTTTGCTAT, the switch fluorescence ratio stood at 1.06 ± 0.062.

Regarding TTTTTGGACT, the switch fluorescence ratio was 0.983 ± 0.012.

Consider TTTTTGGCAA, for which the switch fluorescence ratio was 2.35 ± 2.2.

For the sequence TTTTTGGCAG, the switch fluorescence ratio was determined as 0.971 ± 0.024.

In the case of TTTTTGGGAT, the switch fluorescence ratio is 1.01 ± 0.031.

Take TTTTTGGGCC: the switch fluorescence ratio amounted to 0.994 ± 0.017.

For the sequence TTTTTGGGGG, the switch fluorescence ratio is 0.997 ± 0.035.

As for TTTTTGGGGT, the switch fluorescence ratio came out at 0.999 ± 0.034.

On to TTTTTGGGTA, for which the switch fluorescence ratio is 0.973 ± 0.027.

On to TTTTTGGTGA, for which the switch fluorescence ratio was 0.984 ± 0.013.

On to TTTTTGTAAA, for which the switch fluorescence ratio amounted to 0.9936 ± 0.003.

Turning to TTTTTGTAT, the switch fluorescence ratio was 0.979 ± 0.015.

TTTTTGTGTT: the switch fluorescence ratio was 1 ± 0.025.

In the case of TTTTTGTTCT, the switch fluorescence ratio turned out to be 0.996 ± 0.024.

Regarding TTTTTGTTTC, the switch fluorescence ratio was determined as 1.02 ± 0.046.

As for TTTTTTAAGA, the switch fluorescence ratio was 1.01 ± 0.025.

TTTTTTATCG: the switch fluorescence ratio was determined as 1 ± 0.031.

For TTTTTTCAAG, the switch fluorescence ratio was 0.978 ± 0.019.

Regarding TTTTTTCAGC, the switch fluorescence ratio was found to be 1 ± 0.048.

Turning to TTTTTTCATC, the switch fluorescence ratio stood at 1.031 ± 0.0078.

Regarding TTTTTTCGAT, the switch fluorescence ratio amounted to 0.995 ± 0.047.

Take TTTTTTCGGG: the switch fluorescence ratio was 0.993 ± 0.023.

As for TTTTTTGAAT, the switch fluorescence ratio was 0.995 ± 0.027.

On to TTTTTTGGCA, for which the switch fluorescence ratio came to 0.982 ± 0.035.

Take TTTTTTGGTG: the switch fluorescence ratio came out at 1.02 ± 0.036.

For TTTTTTGTGC, the switch fluorescence ratio was 0.9901 ± 0.0052.

In the case of TTTTTTGTTA, the switch fluorescence ratio worked out at 1 ± 0.024.

For TTTTTTTACA, the switch fluorescence ratio came to 0.998 ± 0.01.

Consider TTTTTTTCCT, for which the switch fluorescence ratio amounted to 1.02 ± 0.066.

With TTTTTTTGGA, the switch fluorescence ratio was 0.976 ± 0.021.

In the case of TTTTTTTGGC, the switch fluorescence ratio was 1.02 ± 0.029.

Consider TTTTTTTGGG, for which the switch fluorescence ratio came out at 1 ± 0.036.

In the case of TTTTTTTTAC, the switch fluorescence ratio amounted to 1.04 ± 0.029.

In the case of TTTTTTTTCG, the switch fluorescence ratio was 1.05 ± 0.12.

In the case of TTTTTTTTG, the switch fluorescence ratio was found to be 0.987 ± 0.019.

Consider TTTTTTTTGC, for which the switch fluorescence ratio is 1.02 ± 0.092.

For TTTTTTTTTA, the switch fluorescence ratio amounted to 1.01 ± 0.022.
